Experiment: soluble on expression in E. coli; label from the status in PepcDB or PDB records
In the case of “MTKSILLVGVGGQGTILASKLLTMGLMEAGYDVKMSEIHGMSQRGGSVSSQVRYGDCVHSPVIEIGGADILVSFEKMEALRWFNYLKPEGKALVNNHRIDSMTVLIGGAEYQESDIDAELSRLNAKVINAADKAEELGNSKIMNVILLGCLVKSMQLESIDWEKIISENVKPKFVELNIKAFHEGMEMVSK”, the “soluble on expression in E. coli” value is reported as “not soluble”. In the case of “MTKSRKQKQKKQDFLRKKLKVGKPKEKARNATDTSFVSKTISIRNQHLDQNPHDLTKRLTLLKHHNINVRKETLTTFQKSIPSIIKSRLMTPLLTQSIPLICDESQQVRQGLIDLVDEIGSHDAEILKLHCNIFVLYINMAMTHIVTQIQADSTKFLSHLLKYCGDEVVRKSWVKLLNGVFGVLGWGQVGKNDSASIVQTKKRNAKYVTIHLNALYTLVEYGCQDERARSDGDTAETTEDSGTLRNPYLIPDYPQPFEHLKLFTRELKVQDATSSGVNATLLSLATQDIDTRKAVFIEQFLPIVRKKIEVIIKEGGECGKSANKLKTLLAKIFD”, the “soluble on expression in E. coli” value is reported as “soluble”. In the case of “MTKTLETQPEEKTVFLCKETNPDFLGREIYADNVETPYNFYLIRKLYLAKEYQNLAEGEQFFEALCESWDESEQFEELIVKKIYVYVETELMYYTVYFGSFEPTTRDLRSALKQWMYEIPTTKNKKTVRMNETNVQVVPQENQLTELAGEIAVLREMLTLLKENLASLNEAVNQTRNPVISRQIKTIHLKRASPVIAAEQASLKVSEDTNLEQPDVNLSPDNRENQEGETTVATSEPAPIKEALPEKKQENQQSTAAKPLFTFPQETEKSSLNSVNKSAEKEEEQKPEKEAVSMESEKENSSSRTIPADFQRQLDELEEEIYRRFMSRHLEDTDGNQAVPKITIEKRQLEAQMFEAKAFSQSFKQVQKKKAGDVRICNQLSCMKLEKGLDKFLDEVTEYVEKRTLFNKKVRCPLPVIRELEGYGQLNQYMQKILDCY”, the “soluble on expression in E. coli” value is reported as “not soluble”. In the case of “MTLAVLASRAIAGWQAPAVRVETHLGSGLPAFAIVGLPDVEVRESRERVRAAIQNSGFDFPPGRITVNLSPADLPKASARFDLPIALGILLASGQVAASAAQTAALPDCVWAAELSLSGALVPLAAPLALALAVAREQPGATLVLPAGSAAVAAWVPGIRVLAAHTLGEAAAYLAGHAELAPAERRSWPEAEPGPCLSDVRGQPAARRALEVAAAGGHSLLMCGPPGAGKSMLAQRLPGLLPPLEQRQALEVAAIAGAGGAPEVLRGQPPFRAPHHSASAAALVGGGARPRPGEISLAHHGVLFLDELPEFERRALESLREPLETGKVVISRALHSVEYPAVFQLVAAMNPCPCGWRGHASKACRCTPDQVRRYAARVSGPLVDRIDLWIELPATEPQWLAEPPGEPSLPVRERVARCRQRQLARQGCLNAKLSGPALDAHCALGAAARTLLQQAMRRLGGSARAAHRALRVARTLADLAHEPEIGAAHIAEAVQYRRPT”, the “soluble on expression in E. coli” value is reported as “not soluble”. With “MTLDYIYHSGFAIEAEGVTVIIDYYKDSSETEHNRGIVHDYLLQRPGKLYVLATHFHPDHFNREILTWKEARPDIRYIFSKDILKSHRAKPEDATYIKKGETYEDETIRIEAFGSTDVGSSFLIHLQDWNIFHAGDLNNWHWSEESTEAEIRKANGDFLAEVKYLKEKAPKIDLALFPVDRRMGKDYMKGAKQFIEQIKTTIFVPMHFSEDYEGGNALRDFAENAGCRFVSITHRGESFEITK” the “soluble on expression in E. coli” value was “not soluble”. In the case of “MTLEQQDRTEQQLAALNAQVRQDLCYLNYPAANWSKPVSTSDGQLVSDVVIIGGGMCGLVAWHALTRAGIANIRIVDRAAKGEEGPWVTYARMETLRSPKNLLGPALGMASLTFRAWYTARFGKEAWEELFRIPRPMWMEYLSWYRQVMEIPVENNIHVTRVIPRLDGLLELEIEGGKADPIITRKLVMATGRDGLGEPTIPDFVKGMPRHVSWAHSADMIDFQRLKGKRVVVIGVGASAVDNAAEALEQGAGEVRLLARRKTMPTINKLMGIGSYGVTAGFAKIDPEWRWRLMDYSVKQQTPAPHNSTLRVSRHSNAYFHFDCGIQSMKEEGGEVVITTINGRVFRTDFVILGTGFSIDPVSRPELEMFNGQIACWEDRYTPPAGEENPGLGRFPWLQDDFSFTEKEPGAAPWLQHIHCFNYGSSVSLGKVSGDIPAISEGALWLARGIAASLFIADIDHHWEALKAYEKPELDGSEWTDADADPSMQKTALEHHHHHH”, the “soluble on expression in E. coli” value is reported as “soluble”. With “MTLKNNILPLLMLSCCFVLAACSSSNSASASASNKNKNMEPNKGRYSLKNDKMPLNPPNVDHVPNATPKYEPYSRRGNKPYTVYGESYTVLNSGEGFSETGRASWYGEKFHGYETSNGEPYDMYGMSGAHKTLPLPSYARVTNLDNNKQVIIRINDRGPFHSERILDLSYAAAYKLGMLGTGTARIKLDVIYIGSKAATQSAIASVHSSGNHYIQLVASKDKQRLHKMAKDLEKKYQVKTRVQPANNMFRLQLGPIGQAELADRLLIKVKQDGYPAGYIVSEK” the “soluble on expression in E. coli” value was “not soluble”. For “MTLMIDENFKKQLAQRRERVEDLFYFENSKEIGRGTYGLVYKAVPKKQNGQFPNKEYALKMIEGQGFSMSACREIALFRELRHPNLICLQRVFLTNEKKVWLLLDYAEHDLWHVIKHHRTAKSKKVPIMVPRNMVKNILFQILSGMHYLHSNWVLHRDLKPANILLMGDGPPDMRGRVKIADLGFSRIYANPLKPMAELDPVVVTFWYRAPELLLGAKHYTKAIDVWAIGCIFAELLTAEPLFFCKEEDIKAQNPYHYDQVKRIFHLLGYPSDADWPDMKKMPDHQRLLSDARNEGTPIQTFPNSLHRYFDKWKINSQSSPYRLLVKLLTVDPTKRVSCEEAMNDIYFRKMERPPRETDDVFNKYPIPYAKKEQQMTVAPDQAQQQHQQQQVQMQQQPQMGQQQMMGQPQMVQPQMGQPPMGGAHPGVVAPDGHPHQMMQQQQHPQQHHMQYQGMHDPMQGGMDEGPQAKMMRMGNVPVGRYAPMPPPYGAPQDYHPQQGPPMVQMMQQPGPSGYYPQRPGQPTGAVPGPGPQGYMNPQMGMQMGMRAPGVPPQGYMPGRGMAPPQMGQQQPGPNQQQQQQWQQQYHR”, the “soluble on expression in E. coli” value was “not soluble”. For “MTLNIQGIAASSGIAIAKAFRLENPEFNIEQKSITNEAAEIARLEAALEKAKTELEAIKDHAFAELGADKAAIFEAHLLVLNDPELVNPVKDKVNSEKVNAEFAMDEVASMFISMFENMDNEYMKERAADIRDVTKRVLAHLLGINFSNPGTNSEEVIIIAEDLTPSDTAQLNRKYAKGFTTDIGGRTSHSAIMARSMEIPAVVGTKVVMEKIQNGDIVIIDGLDGEVIVNPSEETLRSFEEKKAKFEEQKAEWAKLKDQATVTSDGHHVELVANIGTLNDVQGIIDNGGEGVGLYRTEFLYMGRDNLPTEEEQFEAYKAVLEGVKEGQPVVVRTLDIGGDKELPYLHLPKEMNPFLGYRAIRLCLDEQDVFRTQLRALLRASVYGNLKIMFPMIATLDEFRQAKAILLEEKAKLVEVGTTVSDSIEVGMMVEIPASAVLADQFAKEVDFFSIGTNDLIQYTMAADRMNEQVSYLYQPYNLSILRLVKMVIDAAHKEGKWAGMCGEMAGDSLAIPLLLGLGLDEFSMSATSILPARTQLSKLSKAEMETLAEKALMMSTAEEVVELVKSI”, the “soluble on expression in E. coli” value was “not soluble”. With “MTLSFDDAAATVKTLKTSPSNDELLKLYALFKQGTVGDNTTDKPGMFDLKGKAKWSAWDEKKGLAKDDAQKAYVALVEELIAKYGA” the “soluble on expression in E. coli” value was “soluble”. For “MTLTQEKRSYMEKLSDENGIISALAFDQRGALKRLMAQYQTQEPTIAQMEELKVLVAEELTPYASSMLLDPEYGLPAAKHLDKNAGLLLAYEKTGYDTTSTKRLPDCLVEWSAKRLKKQGADAVKFLLYYDVDGDEEVNQQKQAYIERIGSECKAEDIPFFLEILAYDETITDAASVEYAKVKPHKVLDAMKVFSDERFGIDVLKVEVPVNMKYVEGFGDGPIVHTQDQAANFFKQQDQATPLPYIYLSAGVSAKLFQDTLVFAKESGANFNGVLCGRATWAGSVKDYIEKGEAAARQWLRTEGFKNIDELNKVLKATATSWKER”, the “soluble on expression in E. coli” value was “soluble”. For “MTLTVSPTAARTPAEEKARFEGNKLAKRLARETTRAIADYNMIEAGDKVMVCLSGGKDSYALLDILLSLQKRAPFAFEIIAVNLDQKQPGFPPEILPGYLRALGVPFHIETQDTYSIVTRVIPEGKTMCSLCSRLRRGILYRVASELGATKIALGHHRDDILGTFFLNLFYGGKAKGMPPKLVSDDGRHTVIRPLAYVPESDLIAYAQFKQFPIIPCNLCGSQENLKRKEVGRMIQEWDRKHPGRSWNVFNALSRVVPSHLMDRDLFDFVGLKPTGVADAGGDTAFDQIDPEPDTAGPGCASDAPAGQADGMAEQRVVFR”, the “soluble on expression in E. coli” value was “not soluble”. With “MTLYIGMNNTSGKAITDIDHLRQSVRDILLTPQGSRIARREYGSLLSALIDQPQNPALRLQVMSAVYVALSRWEPRLTLDSITINSHFDGSMVVELAGRRNNGVPVSLSVSTGAENGSD” the “soluble on expression in E. coli” value was “not soluble”. In the case of “MTLYVNLAELLGSRIENGFYRPGDRLPSVRALSVEHGVSLSTVQQAYRVLEDSGLAAPKPKSGYFVSVSRHAPALPAVGRPAQRPVDISQWDQVLDLIRVAPREAVTQLGRGMPDVTSPTLKPLMRALGQLSRHQDMPGLYYDNIYGVLRLREQVARLMLDSGCNLTANDVIITNGCHEALSASVRAICSPGDIVAVDSPSFFGAMQTLKGVGMKALEIPTDPLTGISLEALELALEQWPIKVIQLTPNCNNPLGYVMPEARKRALLTLAQRFDVAIIEDDVYGDLAYNYPRPRTIKSFDEDGRVLLCSSFSKTLAPGLRIGWVAPGRYLERVLHMKYIGTGSTAPQPQLAIADFLEGGHYEPHVRRMRTQYQRSRDQMIDWVMRYFPEGTRASRPQGSFMLWVELAEDFDTLRLNRALLDKGVQIAVGSIFSASGKYRNCMRLNYAAKSSREIESAVRIVGETIAQLIAQSD”, the “soluble on expression in E. coli” value is reported as “not soluble”. With “MTMQLIGKKSFPRKANRGAKTRNPSIYWNYRQFICSSSSGYPIPMNFSDEFDFDEDRVYEMLCSDDENTTDYSDEIIAIIDANMRSLWIFQL” the “soluble on expression in E. coli” value was “not soluble”. For “MTNAALDDKTIVRDYFNSTGFDRWRRIYGDGQVNFVQKDIRVGHQQTVDSVVAWLVADGNLPGLLVCDAGCGVGSLSIPLAQAGALVYGSDISEKMVGEAQQKAQEVLAYGNQPTFMTQDLAQLGGKYDTVICLDVLIHYPTEEASAMISHLASLADRRLILSFAPKTLGLTVLKKIGGLFPGPSKTTRAYQHKEADIRKILGDNGFSIARTGMTSTRFYYSRILEAVRSLEHHHHHH”, the “soluble on expression in E. coli” value was “not soluble”. In the case of “MTNKEIKKLCRSFGADLVGVASVERFVNAPKGYHPTDVMPTAKSVISLGMVLPKDILEQDIRTYTDIRNEAVKKMDKVAADVAAELKGLKYKAVSIVSLSGKFVDGHFRSRVSLKHAAELAGLGVIARNYLLTNDKYGNLLWFTAVVTSLELEPDPLATYQVCNNCNLCVDLCPSGALTDENNFSQKGCRKVCYITVKGVLELRCWQCRNVCPYKHGIND”, the “soluble on expression in E. coli” value is reported as “not soluble”. In the case of “MTNLELSGSQSYLNDESTANLSSLAGKFLVQFWGVRGLIPTPSSNTSRYGGNTACVEMQVAGKRLIFDGGTGLRILGKAWQHLQQPLEAHLFFTNSQSNRIQGFPFFAPAFIAGNCFHIYGGAASNGASIKQCLCDQMLQPHFPYPLQVMQSELQFYPLTPDSEVKLDDVTIRTALINQTQRSIGYRVTWQEYSVAYVTDLNMSAEQGEREQVLQIIQDVDLLIANATYTPPTSHDHESVDLLWQAAVEMAQKAGVRKLIISHHHPDDHDDFLDQVEKEVQSTFSDALLACEGLALPVFLEHHHHHH”, the “soluble on expression in E. coli” value is reported as “soluble”. For “MTNLFVRSGISFVDRSEVLTYIGNEMLAKGVVHDTWPQALIAREAEFPTGIMLEQHAIAIPHCEAIHAKSSAIYLLRPTNKVHFQQADDDNDVAVSLVIALIVENPQQQLKLLRCLFGKLQQPDIVETLITLPETQLKEYFTKYVLDSDE”, the “soluble on expression in E. coli” value was “not soluble”. In the case of “MTNMRQVLKTDRLVLEPQSMARFDQWFAMERQRDEAGHRDLTEDQAWLRLCARQGMWDAYACGFYYLLDPVSGEMRGEAGFQFRRRGFGPGFDNHPEAAWAVASAHQGRGLAAEAMQALLAHHDRSSGRQRVVALIARSNLPSLRLAERLGFRGYSDVAFDGAAHLLLERAG”, the “soluble on expression in E. coli” value is reported as “soluble”.
